Data from publication PMC7452723, “How to measure and evaluate binding affinities”.

T1: Puf4 RNA-binding domain (Saccharomyces cerevisiae, UniProt P25339 537-888)
T1 sequence: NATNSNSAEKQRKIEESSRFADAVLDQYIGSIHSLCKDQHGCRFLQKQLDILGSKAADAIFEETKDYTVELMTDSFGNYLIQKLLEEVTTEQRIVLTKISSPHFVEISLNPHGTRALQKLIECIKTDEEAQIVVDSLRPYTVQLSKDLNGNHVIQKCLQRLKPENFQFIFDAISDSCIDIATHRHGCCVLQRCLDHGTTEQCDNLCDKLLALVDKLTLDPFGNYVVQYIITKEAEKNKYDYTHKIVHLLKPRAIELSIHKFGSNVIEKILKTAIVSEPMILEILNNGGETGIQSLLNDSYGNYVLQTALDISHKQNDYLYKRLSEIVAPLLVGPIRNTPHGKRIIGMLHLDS

B1: Puf4_HO RNA (ssRNA)
RNA: AUGUGUAUAUUAGU
B2: U1C mutant competitor RNA (ssRNA)
RNA: CGUAUAUUA

Columns and labels:
[1] = target: T1, Puf4 RNA-binding domain; assay: EMSA; 0 C; quadratic fit; 20 mM HEPES-Na or HEPES-K pH 7.4, 2 mM MgCl2, 100 mM KOAc, 2 mM DTT, 0.2% Tween 20, 5% glycerol, 0.1 mg/ml BSA; 25 or 0 C; native 20% gel at 4-6 C; settings: protein: recombinant; tags: C-terminal SNAP tag; N-terminal 6xHis removed by TEV; label: 5'-32P; single strand
[2] = target: T1, Puf4 RNA-binding domain; assay: EMSA; 25 C; quadratic fit; 20 mM HEPES-Na or HEPES-K pH 7.4, 2 mM MgCl2, 100 mM KOAc, 2 mM DTT, 0.2% Tween 20, 5% glycerol, 0.1 mg/ml BSA; 25 or 0 C; native 20% gel at 4-6 C; settings: protein: recombinant; tags: C-terminal SNAP tag; N-terminal 6xHis removed by TEV; label: 5'-32P; single strand
[3] = target: T1, Puf4 RNA-binding domain; assay: EMSA; 0 C; hyperbolic fit, upper limit (<=); 20 mM HEPES-Na or HEPES-K pH 7.4, 2 mM MgCl2, 100 mM KOAc, 2 mM DTT, 0.2% Tween 20, 5% glycerol, 0.1 mg/ml BSA; 25 or 0 C; native 20% gel at 4-6 C; settings: protein: recombinant; tags: C-terminal SNAP tag; N-terminal 6xHis removed by TEV; label: 5'-32P; single strand
[4] = target: T1, Puf4 RNA-binding domain; assay: EMSA; 25 C; hyperbolic fit; active-fraction corrected; 20 mM HEPES-Na or HEPES-K pH 7.4, 2 mM MgCl2, 100 mM KOAc, 2 mM DTT, 0.2% Tween 20, 5% glycerol, 0.1 mg/ml BSA; 25 or 0 C; native 20% gel at 4-6 C; settings: protein: recombinant; tags: C-terminal SNAP tag; N-terminal 6xHis removed by TEV; label: 5'-32P; single strand
[5] = target: T1, Puf4 RNA-binding domain; assay: EMSA kinetics (koff/kon); 0 C; kon 2.85e7 M-1s-1, koff 2.92e-5 s-1; 20 mM HEPES-Na or HEPES-K pH 7.4, 2 mM MgCl2, 100 mM KOAc, 2 mM DTT, 0.2% Tween 20, 5% glycerol, 0.1 mg/ml BSA; 25 or 0 C; native 20% gel at 4-6 C; settings: protein: recombinant; tags: C-terminal SNAP tag; N-terminal 6xHis removed by TEV; label: 5'-32P; single strand
[6] = target: T1, Puf4 RNA-binding domain; assay: EMSA; 25 C; direct measurement parallel to competition; corrected for 75% active protein; 20 mM HEPES-Na or HEPES-K pH 7.4, 2 mM MgCl2, 100 mM KOAc, 2 mM DTT, 0.2% Tween 20, 5% glycerol, 0.1 mg/ml BSA; 25 or 0 C; native 20% gel at 4-6 C; settings: protein: recombinant; tags: C-terminal SNAP tag; N-terminal 6xHis removed by TEV; label: 5'-32P; single strand
[7] = target: T1, Puf4 RNA-binding domain; assay: EMSA kinetics (koff/kon); 25 C; kon 1.04e8 M-1s-1, koff 0.014 s-1; 20 mM HEPES-Na or HEPES-K pH 7.4, 2 mM MgCl2, 100 mM KOAc, 2 mM DTT, 0.2% Tween 20, 5% glycerol, 0.1 mg/ml BSA; 25 or 0 C; native 20% gel at 4-6 C; settings: protein: recombinant; tags: C-terminal SNAP tag; N-terminal 6xHis removed by TEV; label: 5'-32P; single strand
[8] = target: T1, Puf4 RNA-binding domain; assay: competition EMSA; 25 C; three-fold lower Puf4; 20 mM HEPES-Na or HEPES-K pH 7.4, 2 mM MgCl2, 100 mM KOAc, 2 mM DTT, 0.2% Tween 20, 5% glycerol, 0.1 mg/ml BSA; 25 or 0 C; native 20% gel at 4-6 C; settings: protein: recombinant; tags: C-terminal SNAP tag; N-terminal 6xHis removed by TEV; label: none; single strand
[9] = target: T1, Puf4 RNA-binding domain; assay: competition EMSA; 25 C; vs labeled Puf4_HO, 0.45 nM active Puf4; 190-210 nM across 10-110 min; 230 nM with upper limit of labeled RNA; 20 mM HEPES-Na or HEPES-K pH 7.4, 2 mM MgCl2, 100 mM KOAc, 2 mM DTT, 0.2% Tween 20, 5% glycerol, 0.1 mg/ml BSA; 25 or 0 C; native 20% gel at 4-6 C; settings: protein: recombinant; tags: C-terminal SNAP tag; N-terminal 6xHis removed by TEV; label: none; single strand

Binder | Kd [1] | Kd [2] | Kd [3] | Kd [4] | Kd [5] | Kd [6] | Kd [7] | Kd [8] | Kd [9]
B1 | 1.39 ± 0.09 pM | 120 ± 30 pM | < 1.7 pM | 120 ± 30 pM | 1.02 ± 0.08 pM | 105 pM | 130 ± 30 pM | – | –
B2 | – | – | – | – | – | – | – | 180000 pM | 204000 pM
